Test results taken from publication PMC5014685 (Structure (London, England : 1993), 2016).

B1: GRD2 6xAla mutant (N924A, N928A, Q929A, R930A, E931A, S1204A) (domain or fragment)
chain: GAMASKERRKTLETYQQLFYLLQTNPLYLAKLIFQMPQNKSTKFMDTVIFTLYAYASAAAAEYLLLKLFKTALEEEIKSKVDQVQDIVTGNPTVIKMVVSFNRGARGQNTLRQLLAPVVKEIIDDKSLIINTNPVEVYKAWVNQLETQTGEASKLPYDVTTEQALTYPEVKNKLEASIENLRRVTDKVLNSIISSLDLLPYGLRYIAKVLKNSIHEKFPDATEDELLKIVGNLLYYRYMNPAIVAPDGFDIIDMTAGGQINSDQRRNLGSVAKVLQHAASNKLFEGENEHLSSMNNYLSETYQEFRKYFKEACNVPEPEEKFNMDKYTDLVTVAKPVIYISIEEIISTHSLLLEHQDAIAPEKNDLLSELLGSLGEVPTVESFLGEG
B2: IQGAP1 GTPase-activating protein (GAP)-related domain (residues 962-1345) (domain or fragment)
chain: GAMSKEKREKLEAYQHLFYLLQTNPTYLAKLIFQMPQNKSTKFMDSVIFTLYNYASNQREEYLLLRLFKTALQEEIKSKVDQIQEIVTGNPTVIKMVVSFNRGARGQNALRQILAPVVKEIMDDKSLNIKTDPVDIYKSWVNQMESQTGEASKLPYDVTPEQALAHEEVKTRLDSSIRNMRAVTDKFLSAIVSSVDKIPYGMRFIAKVLKDSLHEKFPDAGEDELLKIIGNLLYYRYMNPAIVAPDAFDIIDLSAGGQLTTDQRRNLGSIAKMLQHAASNKMFLGDNAHLSIINEYLSQSYQKFRRFFQTACDVPELQDKFNVDEYSDLVTLTKPVIYISIGEIINTHTLLLDHQDAIAPEHNDPIHELLDDLGEVPTIESLIGESS
B3: IQGAP2 GTPase-activating protein (GAP)-related domain (residues 875-1257) (domain or fragment, human)
chain: GAMSKERRKTLETYQQLFYLLQTNPLYLAKLIFQMPQNKSTKFMDTVIFTLYNYASNQREEYLLLKLFKTALEEEIKSKVDQVQDIVTGNPTVIKMVVSFNRGARGQNTLRQLLAPVVKEIIDDKSLIINTNPVEVYKAWVNQLETQTGEASKLPYDVTTEQALTYPEVKNKLEASIENLRRVTDKVLNSIISSLDLLPYGLRYIAKVLKNSIHEKFPDATEDELLKIVGNLLYYRYMNPAIVAPDGFDIIDMTAGGQINSDQRRNLGSVAKVLQHAASNKLFEGENEHLSSMNNYLSETYQEFRKYFKEACNVPEPEEKFNMDKYTDLVTVSKPVIYISIEEIISTHSLLLEHQDAIAPEKNDLLSELLGSLGEVPTVESFLGEG
B4: GRD1 6xAla mutant (N1011A, N1015A, Q1016A, R1017A, E1018A, T1291A) (domain or fragment)
chain: GAMASKEKREKLEAYQHLFYLLQTNPTYLAKLIFQMPQNKSTKFMDSVIFTLYAYASAAAAEYLLLRLFKTALQEEIKSKVDQIQEIVTGNPTVIKMVVSFNRGARGQNALRQILAPVVKEIMDDKSLNIKTDPVDIYKSWVNQMESQTGEASKLPYDVTPEQALAHEEVKTRLDSSIRNMRAVTDKFLSAIVSSVDKIPYGMRFIAKVLKDSLHEKFPDAGEDELLKIIGNLLYYRYMNPAIVAPDAFDIIDLSAGGQLTTDQRRNLGSIAKMLQHAASNKMFLGDNAHLSIINEYLSQSYQKFRRFFQTACDVPELQDKFNVDEYSDLVTLAKPVIYISIGEIINTHTLLLDHQDAIAPEHNDPIHELLDDLGEVPTIESLIGESS
B5: human hydrolase deficient (Q61L) Cdc42 (residues 1-177), GTP-loaded (domain or fragment)
chain: not shown

How the values were obtained:
[1] = target: human hydrolase deficient (Q61L) Rac1 (residues 1-177), GTP-bound (human, UniProt P63000 1-177, Q61L); assay: ITC
crystal structure = target: the molecule itself; assay: crystal structure
[2] = target: B3; assay: crystal structure
[3] = target: B3; assay: ITC
[4] = target: B2; assay: ITC

| binding result [1] | Binder | also measured |
| --- | --- | --- |
| binds | B1 |  |
| binds | B2 |  |
| binds | B3 | stoichiometry N (crystal structure): 2 |
| binds | B4 |  |
|  | B5 | stoichiometry N [2]: 2 Cdc42 per GRD2; stoichiometry N [3]: 2 Cdc42 per GRD; stoichiometry N [4]: 2 Cdc42 per GRD |
